According to patent publication US20200270125A1 (OMEROS, published 2020):

T1: human MASP-3 (construct not stated) (human)
T1 chain: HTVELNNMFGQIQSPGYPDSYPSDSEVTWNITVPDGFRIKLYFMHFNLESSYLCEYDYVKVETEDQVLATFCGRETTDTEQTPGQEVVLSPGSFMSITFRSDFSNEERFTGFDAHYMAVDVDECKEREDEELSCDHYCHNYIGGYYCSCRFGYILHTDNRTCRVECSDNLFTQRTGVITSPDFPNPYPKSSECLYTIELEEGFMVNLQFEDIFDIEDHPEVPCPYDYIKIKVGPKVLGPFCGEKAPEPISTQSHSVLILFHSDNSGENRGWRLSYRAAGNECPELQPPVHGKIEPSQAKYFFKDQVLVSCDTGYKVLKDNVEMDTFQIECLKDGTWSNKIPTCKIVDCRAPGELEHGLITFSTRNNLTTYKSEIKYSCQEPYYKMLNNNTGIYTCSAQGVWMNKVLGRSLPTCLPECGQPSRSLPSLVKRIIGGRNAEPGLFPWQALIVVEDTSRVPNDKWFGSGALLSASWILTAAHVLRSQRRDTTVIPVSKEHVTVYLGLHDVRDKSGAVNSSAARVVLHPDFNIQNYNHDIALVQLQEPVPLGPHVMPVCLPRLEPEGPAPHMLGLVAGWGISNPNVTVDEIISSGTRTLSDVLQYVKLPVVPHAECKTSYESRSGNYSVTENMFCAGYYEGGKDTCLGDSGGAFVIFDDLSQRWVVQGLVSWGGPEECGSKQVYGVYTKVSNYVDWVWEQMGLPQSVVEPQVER

T2: recombinant human MASP-1A (S646A, CCP1-CCP2-SP fragment) (human, UniProt P48740 298-699, limits assumed)
T2 chain: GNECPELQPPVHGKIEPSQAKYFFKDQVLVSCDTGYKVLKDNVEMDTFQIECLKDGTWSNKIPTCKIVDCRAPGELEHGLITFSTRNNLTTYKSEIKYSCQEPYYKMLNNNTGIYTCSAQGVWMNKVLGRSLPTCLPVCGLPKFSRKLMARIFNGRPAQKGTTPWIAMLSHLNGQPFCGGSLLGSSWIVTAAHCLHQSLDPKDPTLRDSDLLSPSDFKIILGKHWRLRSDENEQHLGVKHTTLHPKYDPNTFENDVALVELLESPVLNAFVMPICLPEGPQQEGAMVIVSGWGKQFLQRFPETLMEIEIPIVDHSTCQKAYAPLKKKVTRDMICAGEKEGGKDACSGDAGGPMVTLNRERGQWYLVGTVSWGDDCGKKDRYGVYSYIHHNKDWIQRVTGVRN

T3: human MASP-3 CCP1-CCP2-SP fragment (human)
T3 chain: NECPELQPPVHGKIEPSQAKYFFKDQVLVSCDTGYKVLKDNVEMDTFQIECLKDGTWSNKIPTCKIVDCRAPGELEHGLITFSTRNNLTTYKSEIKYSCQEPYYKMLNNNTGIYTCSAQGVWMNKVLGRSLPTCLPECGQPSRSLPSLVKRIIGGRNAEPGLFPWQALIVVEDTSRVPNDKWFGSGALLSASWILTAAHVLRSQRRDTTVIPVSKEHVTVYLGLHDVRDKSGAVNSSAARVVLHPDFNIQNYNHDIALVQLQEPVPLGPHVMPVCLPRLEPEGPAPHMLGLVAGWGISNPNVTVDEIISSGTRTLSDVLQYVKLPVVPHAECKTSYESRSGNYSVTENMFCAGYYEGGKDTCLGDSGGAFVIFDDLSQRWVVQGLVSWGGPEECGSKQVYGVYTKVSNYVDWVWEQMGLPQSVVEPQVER

T4: recombinant full-length mouse MASP-3 (mouse)
T4 construct: Entry is with leader; also called mouse full length MASP-3
T4 chain: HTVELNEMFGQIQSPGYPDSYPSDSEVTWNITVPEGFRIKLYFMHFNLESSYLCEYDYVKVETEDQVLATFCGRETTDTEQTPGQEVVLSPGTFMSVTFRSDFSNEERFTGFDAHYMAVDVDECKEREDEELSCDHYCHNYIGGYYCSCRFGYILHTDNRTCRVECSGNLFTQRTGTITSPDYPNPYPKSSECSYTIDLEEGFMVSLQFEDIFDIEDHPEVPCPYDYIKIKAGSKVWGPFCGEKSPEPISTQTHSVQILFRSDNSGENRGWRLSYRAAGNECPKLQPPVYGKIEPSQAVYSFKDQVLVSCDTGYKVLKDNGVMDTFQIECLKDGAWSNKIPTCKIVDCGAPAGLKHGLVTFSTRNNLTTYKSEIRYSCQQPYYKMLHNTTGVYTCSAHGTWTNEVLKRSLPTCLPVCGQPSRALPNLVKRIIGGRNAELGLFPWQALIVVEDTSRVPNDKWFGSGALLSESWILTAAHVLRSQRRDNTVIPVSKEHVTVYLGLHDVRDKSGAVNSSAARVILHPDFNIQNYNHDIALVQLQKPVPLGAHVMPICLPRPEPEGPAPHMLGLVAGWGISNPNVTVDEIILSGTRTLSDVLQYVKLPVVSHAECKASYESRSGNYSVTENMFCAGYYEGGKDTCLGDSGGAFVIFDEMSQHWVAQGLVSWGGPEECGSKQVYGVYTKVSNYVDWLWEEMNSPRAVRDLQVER

T5: human MASP-1 (construct not stated) (human, UniProt P48740 20-699, limits assumed)
T5 sequence: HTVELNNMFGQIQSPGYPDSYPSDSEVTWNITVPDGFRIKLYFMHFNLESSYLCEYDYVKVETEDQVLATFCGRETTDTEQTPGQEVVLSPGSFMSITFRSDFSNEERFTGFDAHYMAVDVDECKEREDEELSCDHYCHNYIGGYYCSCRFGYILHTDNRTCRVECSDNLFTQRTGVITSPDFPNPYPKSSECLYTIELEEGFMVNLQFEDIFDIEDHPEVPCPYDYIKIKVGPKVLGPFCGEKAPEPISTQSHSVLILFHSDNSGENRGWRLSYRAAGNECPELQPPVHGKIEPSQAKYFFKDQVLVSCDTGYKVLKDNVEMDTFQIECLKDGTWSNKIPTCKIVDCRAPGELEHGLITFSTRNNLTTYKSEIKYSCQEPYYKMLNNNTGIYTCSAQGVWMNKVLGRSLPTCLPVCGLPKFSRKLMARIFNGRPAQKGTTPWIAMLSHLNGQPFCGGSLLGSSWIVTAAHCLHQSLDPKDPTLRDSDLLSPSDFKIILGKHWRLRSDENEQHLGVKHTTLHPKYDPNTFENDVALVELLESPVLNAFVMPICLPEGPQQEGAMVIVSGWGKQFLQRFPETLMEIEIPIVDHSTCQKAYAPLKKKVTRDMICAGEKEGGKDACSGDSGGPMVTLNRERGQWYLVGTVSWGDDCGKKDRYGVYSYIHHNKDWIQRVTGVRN


Legend:
[1] = target: T1, human MASP-3 (construct not stated); test: cell-based or functional assay
[2] = target: T1, human MASP-3 (construct not stated); test: not described at this place
[3] = target: T2, recombinant human MASP-1A (S646A, …); test: ELISA: recombinant MASP-1A (S646A, CCP1-CCP2-SP) coated directly on the plate, A450
Procedure, shortened: (§1)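 Candidate MASP-3 antibodies incubated 1 h at room temperature on the prepared plate, then detected with mouse anti-human kappa-HRP for 1 h. Developed 5 min with TMB; absorbance read at 450 nm.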

[4] = target: T3, human MASP-3 CCP1-CCP2-SP fragment; test: cell-based or functional assay
[5] = target: T4, recombinant full-length mouse MASP-3; test: sandwich ELISA, full-length mouse MASP-3 captured by αM3-259
Procedure, shortened: as §1

[6] = target: T3, human MASP-3 CCP1-CCP2-SP fragment; test: sandwich ELISA: human MASP-3 CCP1-CCP2-SP captured on aM3-259, mAb detected with anti-human kappa-HRP, A450
Protocol: The plate was then washed (PBS-T, 0.05%) and the candidate MASP-3 antibodies were added followed by incubation for one hour at room temperature. The plate was washed (PBS-T, 0.05%) and a detection antibody was added (mouse anti-human kappa-HRP, SouthernBiotech #9230-05) for one hour at room temperature. After another wash (PBS-T, 0.05%) the plate was developed (5 minutes) with OPT EIA TMB (BD Biosciences #555214). Absorbance reading at A450 was measured using the Spectramax M5e plate reader.

[7] = target: T6, recombinant human MASP-2 (CCP1-CCP2-SP fragment) (human, UniProt O00187 298-686, limits assumed); test: ELISA: recombinant MASP-2 (CCP1-CCP2-SP) coated directly on the plate, A450
T6 construct: domain: CCP1-CCP2-SP fragment
Procedure, shortened: as §1

[8] = target: T3, human MASP-3 CCP1-CCP2-SP fragment; test: sandwich ELISA, MASP-3 CCP1-CCP2-SP captured by αM3-259
Procedure, shortened: as §1

[9] = target: T1, human MASP-3 (construct not stated); test: cell-based or functional assay
[10] = target: T1, human MASP-3 (construct not stated); test: cross-species binding experiments
[11] = target: T1, human MASP-3 (construct not stated); test: ELISA, monovalent Fab
[12] = target: T5, human MASP-1 (construct not stated); test: DTLacO screen

T6 sequence (O00187 298-686 limits assumed): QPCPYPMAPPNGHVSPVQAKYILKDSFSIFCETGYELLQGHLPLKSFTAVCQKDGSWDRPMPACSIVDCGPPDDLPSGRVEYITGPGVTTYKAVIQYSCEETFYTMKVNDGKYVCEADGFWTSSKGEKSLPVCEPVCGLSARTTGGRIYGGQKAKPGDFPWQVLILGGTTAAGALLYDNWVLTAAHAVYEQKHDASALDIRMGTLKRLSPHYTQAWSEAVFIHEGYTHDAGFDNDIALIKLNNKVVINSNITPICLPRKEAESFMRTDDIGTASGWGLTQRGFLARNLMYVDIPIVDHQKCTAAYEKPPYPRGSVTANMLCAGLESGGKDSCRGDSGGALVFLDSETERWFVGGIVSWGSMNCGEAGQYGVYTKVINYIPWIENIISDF

| Binder | Inhibition of Factor Bb Deposition on Zymosan (IC50 nM), 10% factor D-depleted human serum with pro-factor D [1] [nM] | binding affinity [2] [pM] | binding result [3] | inhibition of MASP-3-dependent fluorogenic tripeptide (BOC-V-P-R-AMC) cleavage [4] [nM] | EC50 [5] [nM] | EC50 [6] [nM] | binding result [7] | EC50 [8] [nM] | avidity [10] [pM] | EC50 [11] [nM] | binding result [12] | other results |
| --- | --- | --- | --- | --- | --- | --- | --- | --- | --- | --- | --- | --- |
| MASP-3 mAb 4D5 (mouse-human chimeric IgG4) (antibody, V domains shown) VH: QVQLKQSGPELVKPGASVKLSCKASGYTFTTDDINWVKQRPGQGLEWIGWIYPRDDRTKYNDKFKDKATLTVDTSSNTAYMDLHSLTSEDSAVYFCSSLEDTYWGQGTLVAVSS VL: DIVMTQSPSSLAVSAGEKVTMTCKSSQSLLNSRTRKNYLAWYQQKPGQSPKLLIYWASTRESGVPDRFTGSGSGTDFSLTISSVQAEDLAVYYCKQSYNLYTFGGGTKLEIKR | 0.4 | ≤ 500 | no binding (tested: about 20 nM (log10 about 1.3)) | 27.5 | 0.098 | 0.113 | no binding (tested: about 20 nM (log10 about 1.3)) | 0.058 |  |  |  | Inhibition of Rabbit Erythrocyte Lysis (IC50 nM), 10% factor D-depleted human serum [9]: 0.1 nM |
| MASP-3 mAb 10D12 (mouse-human chimeric IgG4) (antibody, V domains shown) VH: QIQLVQSGPELKKPGETVKISCKASGYIFTSYGMSWVRQAPGKGLKWMGWINTYSGVPTYADDFKGRFAFSLETSARTPYLQINNLKNEDTATYFCARGGEAMDYWGQGTSVTVSS VL: not shown | 0.5 | ≤ 500 | no binding (tested: about 20 nM (log10 about 1.3)) | 30.9 | 0.081 | 0.023 | no binding (tested: about 20 nM (log10 about 1.3)) | 0.089 |  |  |  |  |
| 10D12 Parental Fab (Fab, V domains shown, Monovalent Fab; also called 10D12 Fab) VH: QIQLVQSGPELKKPGETVKISCKASGYIFTSYGMSWVRQAPGKGLKWMGWINTYSGVPTYADDFKGRFAFSLETSARTPYLQINNLKNEDTATYFCARGGEAMDYWGQGTSVTVSS VL: not shown |  |  |  |  |  |  |  |  | < 500 | 0.108 |  |  |
| MASP-3 clone D14 (antibody, human IgG1, V domains shown, Chicken V regions from the DTLacO platform; also called mAbD14; mAb D14) VH: AVTLDESGGGLQTPGGALSLVCKASGFTFSSYAMHWVRQAPGKGLEWVAGIYKSGAGTNYAPAVKGRATISRDNGQSTVRLQLNNLRAEDTGTYYCAKTTGSGCSSGYRAEYIDAWGHGTEVIVSS VL: ALTQPASVSANPGETVKITCSGGGSYAGSYYYGWYQQKAPGSAPVTLIYYNNKRPSDIPSRFSGSLSGSTNTLTITGVRADDEAVYFCGSADNSGAAFGAGTTLTVL |  |  |  |  |  |  |  |  |  |  | binds |  |
| 4D5 Parental Fab (Fab, V domains shown, Monovalent Fab; also called 4D5 Fab) VH: QVQLKQSGPELVKPGASVKLSCKASGYTFTTDDINWVKQRPGQGLEWIGWIYPRDDRTKYNDKFKDKATLTVDTSSNTAYMDLHSLTSEDSAVYFCSSLEDTYWGQGTLVAVSS VL: DIVMTQSPSSLAVSAGEKVTMTCKSSQSLLNSRTRKNYLAWYQQKPGQSPKLLIYWASTRESGVPDRFTGSGSGTDFSLTISSVQAEDLAVYYCKQSYNLYTFGGGTKLEIKR |  |  |  |  |  |  |  |  | < 500 | 0.107 |  |  |
| MASP-1 clone 1E10 (antibody, human IgG1, V domains shown, Chicken V regions from the DTLacO platform; also called mAb 1E10; mAb1E10) VH: AVTLDESGGGLQTPGGALSLVCKASGFTFSSYDMVWVRQAPGKGLEFVAGISRNDGRYTEYGSAVKGRATISRDNGQSTVRLQLNNLRAEDTATYYCARDAGGSAYWFDAGQIDAWGHGTEVIVSS VL: ALTQPASVSANPGETVKITCSGGGSYAGSYYYGWYQQKAPGSAPVTLIYYNNKRPSDIPSRFSGSLSGSTNTLTITGVRADDEAVYFCGSADNSGAAFGAGTTLTVL |  |  |  |  |  |  |  |  |  |  | binds |  |
